Measurements taken from patent publication US12122830 (ABL BIO, dated 2024).

Legend:
[1] = molecular target: T1, human ROR1 expressed on the cell surface (human, UniProt Q01973 30-937); assay: flow cytometry on HT29 cells (colon cancer), C2E3 IgG at 10 µg/mL, MFI of anti-ROR1 / MFI of 2nd Ab
T1 construct: whole, on cells; On JeKo-1 and Mino cells and other cancer cell lines (endogenous) and on transfected CHO and MC38 cells; also called cell surface-expressed ROR1; CHO-human ROR1
Description: (§1) For the cell lines, the binding to ROR1 was analyzed with FACS (FACSCalibur, BD Biosciences) by using the anti-ROR1 antibody of the present invention.
(§2) Specifically, after disassociating each cell line and washing in PBS, the number of cells was counted and set as 2 ×10^5 cells/200 µl PBS, and then the clone C2E3 among ROR1 monoclonal antibodies prepared in Example 3 was treated in 10 µg/mL, and it was reacted at 4° C. for 1 hour. After reaction, cells were washed in PBS, and then the FITC-labeled constant region (Fc)-specific antibody (Goat anti-human IgG FITC conjugate, Fc specific, Sigma, F9512, concentration: 2.0 mg/ml) was suspended in 2 µl/1 ×10^5 cells/200 µl PBS, and it was reacted at 4° C. for 1 hour. After reaction, cells were washed in PBS, it was analyzed using a FACSCalibur device. The negative control group was treated only with the FITC-labeled constant region (Fc)-specific antibody. To compare the expression degrees of ROR1 among the cancer cell lines, the value of the result for the peak shift in the experimental group treated with the ROR1 monoclonal antibody (C2E3) of the present invention was divided by the result for the peak shift in the control group (Mean Fluorescence Intensity Ratio MFI Ratio: MFI of anti-ROR1/MFI of 2nd Ab).

[2] = molecular target: T1, human ROR1 expressed on the cell surface; assay: flow cytometry on Calu-6 cells (lung cancer), C2E3 IgG at 10 µg/mL, MFI of anti-ROR1 / MFI of 2nd Ab
Description: as §1, §2

[3] = molecular target: T1, human ROR1 expressed on the cell surface; assay: flow cytometry on NCI-N87 cells (gastric cancer), C2E3 IgG at 10 µg/mL, MFI of anti-ROR1 / MFI of 2nd Ab
Description: as §1, §2

[4] = molecular target: T1, human ROR1 expressed on the cell surface; assay: flow cytometry on MDA-MB-468 cells (breast cancer), C2E3 IgG at 10 µg/mL, MFI of anti-ROR1 / MFI of 2nd Ab
Description: as §1, §2

[5] = molecular target: T1, human ROR1 expressed on the cell surface; assay: flow cytometry on H460 cells (lung cancer), C2E3 IgG at 10 µg/mL, MFI of anti-ROR1 / MFI of 2nd Ab
Description: as §1, §2

[6] = molecular target: T1, human ROR1 expressed on the cell surface; assay: flow cytometry on HCC70 cells (breast cancer), C2E3 IgG at 10 µg/mL, MFI of anti-ROR1 / MFI of 2nd Ab
Description: as §1, §2

[7] = molecular target: T1, human ROR1 expressed on the cell surface; assay: flow cytometry on A549 cells (lung cancer), C2E3 IgG at 10 µg/mL, MFI of anti-ROR1 / MFI of 2nd Ab
Description: as §1, §2

[8] = molecular target: T2, recombinant mouse ROR1 protein (Acrobiosystems, RO1-M5221) (mouse, UniProt Q9Z139 30-406); assay: ELISA, recombinant mouse ROR1 protein coated at 1 µg/ml, IgG titrated, HRP anti-Fab detection
T2 construct: extracellular domain; Bought; also called mouse ROR1 antigen
T2 sequence (Q9Z139 30-406): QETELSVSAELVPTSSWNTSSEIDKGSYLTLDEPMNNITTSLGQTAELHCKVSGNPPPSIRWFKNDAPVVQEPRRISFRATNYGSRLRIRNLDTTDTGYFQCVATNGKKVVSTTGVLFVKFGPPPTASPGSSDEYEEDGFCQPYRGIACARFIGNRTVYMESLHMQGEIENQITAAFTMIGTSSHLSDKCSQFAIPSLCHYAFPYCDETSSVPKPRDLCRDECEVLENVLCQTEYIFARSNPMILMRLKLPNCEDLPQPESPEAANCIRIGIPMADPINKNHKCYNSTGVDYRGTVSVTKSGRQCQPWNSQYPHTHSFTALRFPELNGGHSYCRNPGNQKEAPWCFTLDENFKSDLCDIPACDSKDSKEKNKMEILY
Description: The anti-ROR1 antibody-antigen binding affinity was estimated by using an ELISA-based solution binding test. Specifically, a 96-well microtiter plate (Nunc-Immuno Plates, NUNC) was coated with the ROR1 protein at a concentration of 1 µg/ml in a PBS solution as described below at 4° C. for 16 hours, and non-specific binding sites were blocked with 3% BSA (bovine serum albumin) for 2 hours. For this, as the ROR1 protein, in case of human ROR1, ROR1-Fc of Example 1 or recombinant ROR1-His (Sino Biological, 13968-H08H) was used. The ROR1-His used for ELISA was a protein of sino biological company (13968-H08H) as described in the above sentence, and ROR1-His of Example 1 or recombinant mouse ROR1 protein was used (Acrobiosystems, RO1-M5221-100 µg).
Then, after adding the anti-ROR1 antibody prepared in Example 3 at the concentration described in FIG. 2 into the microtiter plate on a 96-well microtiter plate, the binding capacity was analyzed with ELISA as follows. Specifically, after constant temperature treatment for 2 hours, the plate was washed with PBS comprising 0.05% tween 20 5 times, and then a HRP-conjugated Fab multiclonal antibody reagent (Pierce, 31414) was diluted at 1:10,000 ratio, and was put into the washed microtiter plate, and it was incubated at 37° C. for 1 hour, and the ROR1 antibody bound to the plate was detected. After reaction, it was color-developed by using TMB (Tetramethylbenzidine, Sigma, T0440). The enzymatic reaction was stopped by 0.5 mol/L of sulfuric acid, and the absorbances at 450 nm and 650 nm were measured by using a micro plate reader device (molecular device) (450 nm-650 nm).

[9] = molecular target: T1, human ROR1 expressed on the cell surface; assay: flow cytometry on SNU-1750 cells (gastric cancer), C2E3 IgG at 10 µg/mL, MFI of anti-ROR1 / MFI of 2nd Ab
Description: as §1, §2

[10] = molecular target: T1, human ROR1 expressed on the cell surface; assay: flow cytometry on HCT116 cells (colon cancer), C2E3 IgG at 10 µg/mL, MFI of anti-ROR1 / MFI of 2nd Ab
Description: as §1, §2

[11] = molecular target: T1, human ROR1 expressed on the cell surface; assay: flow cytometry on NCI-H1975 cells (lung cancer), C2E3 IgG at 10 µg/mL, MFI of anti-ROR1 / MFI of 2nd Ab
Description: as §1, §2

T1 sequence (Q01973 30-937): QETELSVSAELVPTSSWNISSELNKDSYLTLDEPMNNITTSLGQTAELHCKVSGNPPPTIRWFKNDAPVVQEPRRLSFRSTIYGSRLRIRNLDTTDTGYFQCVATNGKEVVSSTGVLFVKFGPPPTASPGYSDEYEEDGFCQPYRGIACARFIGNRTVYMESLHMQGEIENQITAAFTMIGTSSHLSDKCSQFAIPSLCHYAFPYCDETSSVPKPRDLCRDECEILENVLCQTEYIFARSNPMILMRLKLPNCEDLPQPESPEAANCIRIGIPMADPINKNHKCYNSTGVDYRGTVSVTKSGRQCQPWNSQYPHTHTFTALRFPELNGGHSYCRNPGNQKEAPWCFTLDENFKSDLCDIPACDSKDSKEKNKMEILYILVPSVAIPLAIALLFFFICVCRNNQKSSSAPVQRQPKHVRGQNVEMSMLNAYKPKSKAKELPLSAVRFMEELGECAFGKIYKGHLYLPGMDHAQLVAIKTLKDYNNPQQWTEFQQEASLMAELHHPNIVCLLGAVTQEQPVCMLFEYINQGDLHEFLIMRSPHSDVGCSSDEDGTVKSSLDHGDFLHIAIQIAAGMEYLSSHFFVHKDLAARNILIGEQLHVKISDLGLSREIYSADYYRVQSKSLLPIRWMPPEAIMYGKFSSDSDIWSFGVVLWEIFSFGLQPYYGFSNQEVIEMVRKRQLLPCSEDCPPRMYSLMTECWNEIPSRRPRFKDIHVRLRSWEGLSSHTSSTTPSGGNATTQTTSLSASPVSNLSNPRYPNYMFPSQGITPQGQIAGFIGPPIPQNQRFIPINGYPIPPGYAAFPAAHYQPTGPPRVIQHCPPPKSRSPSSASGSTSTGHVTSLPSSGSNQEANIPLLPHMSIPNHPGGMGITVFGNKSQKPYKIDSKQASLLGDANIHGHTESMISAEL

B1: C2E3 anti-ROR1 IgG antibody (antibody, V domains shown)
VH: EVQLLESGGGLVQPGGSLRLSCAASGFTFSNYAMSWVRQAPGKGLEWVSSISHNSGSTYYADSVKGRFTISRDNSKNTLYLQMNSLRAEDTAVYYCAKFISARKSLGRSYSNGMDVWGQGTLVTVSS
VL: QSVLTQPPSASGTPGQRVTISCTGSSSNIGSNDVTWYQQLPGTAPKLLIYADSKRPSGVPDRFSGSKSGTSASLAISGLRSEDEADYYCGTWDYSLSGYVFGGGTKLTVLG
Question: What does the source list for B1?
Answer: Mean Fold Ratio [1]: 3.9; Mean Fold Ratio [2]: 3.3; Mean Fold Ratio [3]: 11.8; Mean Fold Ratio [4]: 6.4; Mean Fold Ratio [5]: 10.9; Mean Fold Ratio [6]: 3.8; Mean Fold Ratio [7]: 6; binding result [8]: binds; Mean Fold Ratio [9]: 3.9; Mean Fold Ratio [10]: 18; Mean Fold Ratio [11]: 4.2
